Data taken from patent US20210269545A1 (published 2021).
Substitutions are numbered along the chain they refer to.

B1: BS1M-4 (bispecific antibody)
heavy 1: QVQLVQSGAEVKKPGSSVKVSCKASGGTFSSYAFSWVRQAPGQGLEWMGRVIPHLGTANSAQKFQGRVTITADKSTSTAYMELSSLRSEDTAVYYCARDDIAALGPFDYWGQGTLVTVSS
heavy 2: not shown
light: not shown
notes: Variant of BS1 in the CDR-H2 of the anti-CD38 arm; not shown: heavy chain constant region of the BS1 format
B2: BS1M-2 (bispecific antibody)
heavy 1: B1 heavy 1 with I52T, H54F
heavy 2: not shown
light: not shown
notes: Variant of BS1; not shown: heavy chain constant region of the BS1 format
B3: BS1M-5 (bispecific antibody)
heavy 1: B1 heavy 1 with I52T
heavy 2: not shown
light: not shown
notes: as for B2
B4: BS1M-7 (bispecific antibody)
heavy 1: B1 heavy 1 with H54Q
heavy 2: not shown
light: not shown
notes: as for B1
B5: BS1M-8 (bispecific antibody)
heavy 1: B1 heavy 1 with L55Q
heavy 2: not shown
light: not shown
notes: as for B2
B6: BS1M-9 (bispecific antibody)
heavy 1: B1 heavy 1 with H54Q, L55Q
heavy 2: not shown
light: not shown
notes: as for B2

Assays:
[1] = target: T1, CD38 (human, UniProt P28907 43-300, limits assumed); assay: BLI (Octet Red), antibody on anti-hIgG Fc (AHC) sensor, 1:1 model
T1 construct: Soluble antigen of the bio-layer interferometry experiments; also called Cluster of Differentiation 38; CD38 antigen (Octet)

[2] = target: T1, CD38; assay: BLI (Octet Red), antibody on anti-hIgG Fc (AHC) sensor
Method: Binding experiments were performed on Octet Red at 25° C. The antibodies were loaded onto anti-hIgG Fc Capture (AHC) biosensors for 300 seconds. The ligand-loaded sensors were dipped into a two-fold series dilution (starting at 300 nM) of the antigens (CD19 and CD38) for 240 seconds of CD19 and 150 seconds of CD38 for association followed by dissociation for 600 seconds of CD19 and 130 seconds of CD38. Kinetic constants were calculated using a monovalent (1:1) binding model.

Binder	Kd [1] [nM]	binding result [2]
B1	94.4	–
B2	–	no binding
B3	–	no binding
B4	60.5	–
B5	–	no binding
B6	–	no binding
